From paper PMC10014536

Target: bovine rhodopsin (bovine) (UniProt P02699)
Chain of UniProt P02699 (P02699 whole entry): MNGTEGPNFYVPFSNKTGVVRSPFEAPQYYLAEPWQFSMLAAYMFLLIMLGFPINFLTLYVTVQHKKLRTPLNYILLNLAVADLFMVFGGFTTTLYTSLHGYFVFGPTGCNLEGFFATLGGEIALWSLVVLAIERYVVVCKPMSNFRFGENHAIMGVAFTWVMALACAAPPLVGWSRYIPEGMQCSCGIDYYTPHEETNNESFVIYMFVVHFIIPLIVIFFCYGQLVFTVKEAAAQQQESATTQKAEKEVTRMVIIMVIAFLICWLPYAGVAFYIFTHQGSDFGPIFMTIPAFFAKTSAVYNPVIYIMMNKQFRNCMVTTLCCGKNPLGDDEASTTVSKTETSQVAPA

light-evoked second messenger (cAMP) plate reader assay in transfected HEK293 cells, G-protein subtype profile of bovine rhodopsin (Supplementary Figure S5): 10%
Substance: Gso (Gs subunit chimera with a Go tail)
